According to patent US10098938B2, “Peptides and combination of peptides for use in immunotherapy against various cancers” (immatics biotechnologies GmbH, priority 2015, dated 2018):

How the values were obtained:
HLA-A*02 = HLA-A*02 (Homo sapiens, UniProt P04439, D140Y/D185E/D98H/E176V/E277Q/G131W/G231S/I119V/I121R/I166T/I218V/L300P/N151K/N90K/P208A/P217A/Q86G/Q94H/R138H/R169H); test: MHC binding assay, UV-ligand exchange with β2m ELISA, HLA-A*02; conditions: binding to HLA-A*02 ranged by peptide exchange yield
From the text: (§1) Candidate peptides for T cell based therapies according to the present invention were further tested for their MHC binding capacity (affinity). The individual peptide-MHC complexes were produced by UV-ligand exchange, where a UV-sensitive peptide is cleaved upon UV-irradiation, and exchanged with the peptide of interest as analyzed. Only peptide candidates that can effectively bind and stabilize the peptide-receptive MHC molecules prevent dissociation of the MHC complexes. To determine the yield of the exchange reaction, an ELISA was performed based on the detection of the light chain (β2m) of stabilized MHC complexes. The assay was performed as generally described in Rodenko et al. (Rodenko et al., 2006).
(§2) 96 well MAXISorp plates (NUNC) were coated over night with 2 ug/ml streptavidin in PBS at room temperature, washed 4× and blocked for 1 h at 37° C. in 2% BSA containing blocking buffer. Refolded HLA-A*02:01/MLA-001 monomers served as standards, covering the range of 15-500 ng/ml. Peptide-MHC monomers of the UV-exchange reaction were diluted 100 fold in blocking buffer. Samples were incubated for 1 h at 37° C., washed four times, incubated with 2 ug/ml HRP conjugated anti-β2m for 1 h at 37° C., washed again and detected with TMB solution that is stopped with […]. Absorption was measured at 450 nm. Candidate peptides that show a high exchange yield (preferably higher than 50%, most preferred higher than 75%) are generally preferred for a generation and production of antibodies or fragments thereof, and/or T cell receptors or fragments thereof, as they show sufficient avidity to the MHC molecules and prevent dissociation of the MHC complexes.

CD8+ T cells = test: In vitro immunogenicity: T-cell priming with aAPCs loaded with peptide/MHC and anti-CD28, pMHC multimer readout; format: cell-based, human; conditions: in vitro immunogenicity of HLA class I peptides; for Wells positive [%]: pMHC multimer readout after T-cell priming; for Wells: CD8+ T cells of healthy donors, three stimulation cycles, multimer staining
From the text: In order to obtain information regarding the immunogenicity of the TUMAPs of the present invention, the inventors performed investigations using an in vitro T-cell priming assay based on repeated stimulations of CD8+ T cells with artificial antigen presenting cells (aAPCs) loaded with peptide/MHC complexes and anti-CD28 antibody.
In order to perform in vitro stimulations by artificial antigen presenting cells loaded with peptide-MHC complex (pMHC) and anti-CD28 antibody, the inventors first isolated CD8+ T cells from fresh HLA-A*02 leukapheresis products via positive selection using CD8 microbeads (Miltenyi Biotec, Bergisch-Gladbach, Germany) of healthy donors obtained from the University clinics Mannheim, Germany, after informed consent.
PBMCs and isolated CD8+ lymphocytes were incubated in T-cell medium (TCM) until use consisting of RPMI-Glutamax (Invitrogen, Karlsruhe, Germany) supplemented with 10% heat inactivated human AB serum (PAN-Biotech, Aidenbach, Germany), 100 U/ml Penicillin/100 μg/ml Streptomycin (Cambrex, Cologne, Germany), 1 mM sodium pyruvate (CC Pro, Oberdorla, Germany), 20 μg/ml Gentamycin (Cambrex). 2.5 ng/ml IL7 (PromoCell, Heidelberg, Germany) and 10 U/ml IL-2 (Novartis Pharma, Nürnberg, Germany) were also added to the TCM at this step.
Generation of pMHC/anti-CD28 coated beads, T-cell stimulations and readout was performed in a highly defined in vitro system using four different pMHC molecules per stimulation condition and 8 different pMHC molecules per readout condition.
The purified co-stimulatory mouse IgG2a anti human CD28 Ab 9.3 (Jung et al., 1987) was chemically biotinylated using Sulfo-N-hydroxysuccinimidobiotin as recommended by the manufacturer (Perbio, Bonn, Germany). Beads used were 5.6 μm diameter streptavidin coated polystyrene particles (Bangs Laboratories, Illinois, USA).
pMHC used for positive and negative control stimulations were A*0201/MLA-001 (peptide […] (SEQ ID NO. 303) from modified Melan-A/MART-1) and A*0201/DDX5-001 ([…] from DDX5, SEQ ID NO. 304), respectively.
800.000 beads/200 μl were coated in 96-well plates in the presence of 4×12.5 ng different biotin-pMHC, washed and 600 ng biotin anti-CD28 were added subsequently in a volume of 200 μl. Stimulations were initiated in 96-well plates by co-incubating […] CD8+ T cells with 2×10^5 washed coated beads in 200 μl TCM supplemented with 5 ng/ml IL-12 (PromoCell) for 3 days at 37° C. Half of the medium was then exchanged by fresh TCM supplemented with 80 U/ml IL-2 and incubating was continued for 4 days at 37° C. This stimulation cycle was performed for a total of three times. For the pMHC multimer readout using 8 different pMHC molecules per condition, a two-dimensional combinatorial coding approach was used as previously described (Andersen et al., 2012) with minor modifications encompassing coupling to 5 different fluorochromes. Finally, multimeric analyses were performed by staining the cells with Live/dead near IR dye (Invitrogen, Karlsruhe, Germany), CD8-FITC antibody clone SK1 (BD, Heidelberg, Germany) and fluorescent pMHC multimers. For analysis, a BD LSRII SORP cytometer equipped with appropriate lasers and filters was used. Peptide specific cells were calculated as percentage of total CD8+ cells. Evaluation of multimeric analysis was done using the FlowJo software (Tree Star, Oregon, USA). In vitro priming of specific multimer+ CD8+ lymphocytes was detected by comparing to negative control stimulations.

HLA-A*24 = test: MHC binding assay, UV-ligand exchange with β2m ELISA, HLA-A*24; set-up: species or system human; conditions: binding to HLA-A*24 ranged by peptide exchange yield
From the text: as §1, §2

Substance: 1 (LLYPEPWSV; listed as Homo sapiens) [compound 1]
- Peptide exchange (HLA-A*02): ++++ (> = 75% = ++++)

Substance: 3 (KLEENGDLYL; listed as Homo sapiens) [compound 3]
- Peptide exchange (HLA-A*02): ++++ (> = 75% = ++++)

Substance: 4 (KLMPGTYTL; listed as Homo sapiens) [compound 4]
- Wells positive [%] (CD8+ T cells): + (<20% = +)
- Peptide exchange (HLA-A*02): ++++ (> = 75% = ++++)

Substance: 12 (GLLPLLHRA; listed as Homo sapiens) [compound 12]
- Wells positive [%] (CD8+ T cells): ++++ (> = 70% = ++++)
- Peptide exchange (HLA-A*02): ++++ (> = 75% = ++++)

Substance: 14 (ILAKDLFEI; listed as Homo sapiens) [compound 14]
- Peptide exchange (HLA-A*02): ++++ (> = 75% = ++++)

Substance: 16 (YTLDIPVLFGV; listed as Homo sapiens) [compound 16]
- Peptide exchange (HLA-A*02): ++++ (> = 75% = ++++)

Substance: 34 (FLLATEVVTV; listed as Homo sapiens) [compound 34]
- Peptide exchange (HLA-A*02): ++++ (> = 75% = ++++)

Substance: 42 (LLDSVSRL; listed as Homo sapiens) [compound 42]
- Peptide exchange (HLA-A*02): + (<20% = +)

Substance: 51 (LLFSRLCGA; listed as Homo sapiens) [compound 51]
- Peptide exchange (HLA-A*02): ++++ (> = 75% = ++++)

Substance: 82 (FIFDEAEKL; listed as Homo sapiens) [compound 82]
- Peptide exchange (HLA-A*02): + (<20% = +)

Substance: 84 (ALCPRIHEV; listed as Homo sapiens) [compound 84]
- Peptide exchange (HLA-A*02): ++++ (> = 75% = ++++)

Substance: 92 (GLLFSLRSV; listed as Homo sapiens) [compound 92]
- Peptide exchange (HLA-A*02): ++++ (> = 75% = ++++)

Substance: 95 (GLLGSLFFL; listed as Homo sapiens) [compound 95]
- Peptide exchange (HLA-A*02): ++++ (> = 75% = ++++)

Substance: 100 (ALLGMIIVGV; listed as Homo sapiens) [compound 100]
- Peptide exchange (HLA-A*02): + (<20% = +)

Substance: 112 (SLGKFTFDV; listed as Homo sapiens) [compound 112]
- Peptide exchange (HLA-A*02): ++++ (> = 75% = ++++)

Substance: 120 (VTPVTVSAV; listed as Homo sapiens) [compound 120]
- Peptide exchange (HLA-A*02): + (<20% = +)

Substance: 125 (SLADYEHFV; listed as Homo sapiens) [compound 125]
- Peptide exchange (HLA-A*02): ++++ (> = 75% = ++++)

Substance: 126 (QMFQYFITV; listed as Homo sapiens) [compound 126]
- Peptide exchange (HLA-A*02): ++++ (> = 75% = ++++)

Substance: 129 (RLQDILWFL; listed as Homo sapiens) [compound 129]
- Peptide exchange (HLA-A*02): ++++ (> = 75% = ++++)

Substance: 133 (ALLPRLHQL; listed as Homo sapiens) [compound 133]
- Peptide exchange (HLA-A*02): ++++ (> = 75% = ++++)

Substance: 147 (YLMDDTVEI; listed as Homo sapiens) [compound 147]
- Peptide exchange (HLA-A*02): ++++ (> = 75% = ++++)

Substance: 153 (FISERVEVV; listed as Homo sapiens) [compound 153]
- Peptide exchange (HLA-A*02): ++++ (> = 75% = ++++)

Substance: 158 (HYSQELSLLYL; listed as Homo sapiens) [compound 158]
- Wells positive [%] (CD8+ T cells): + (<20% = +)
- Peptide exchange (HLA-A*24): ++++ (> = 75% = ++++)

Substance: 159 (LYNKGFIYL; listed as Homo sapiens) [compound 159]
- Wells positive [%] (CD8+ T cells): ++++ (> = 70% = ++++)
- Peptide exchange (HLA-A*24): ++++ (> = 75% = ++++)

Substance: 163 (DYLKGLASF; listed as Homo sapiens) [compound 163]
- Wells positive [%] (CD8+ T cells): + (<20% = +)
- Peptide exchange (HLA-A*24): ++++ (> = 75% = ++++)

Substance: 165 (DYTTWTALL; listed as Homo sapiens) [compound 165]
- Wells positive [%] (CD8+ T cells): + (<20% = +)
- Peptide exchange (HLA-A*24): ++++ (> = 75% = ++++)

Substance: 167 (NYINRILKL; listed as Homo sapiens) [compound 167]
- Wells positive [%] (CD8+ T cells): + (<20% = +)
- Peptide exchange (HLA-A*24): ++++ (> = 75% = ++++)

Substance: 204 (TYELRYFQI; listed as Homo sapiens) [compound 204]
- Wells positive [%] (CD8+ T cells): + (<20% = +)
- Peptide exchange (HLA-A*24): ++++ (> = 75% = ++++)

Substance: 229 (AILAHLNTV; listed as Homo sapiens) [compound 229]
- Peptide exchange (HLA-A*02): ++++ (> = 75% = ++++)

Substance: 245 (SLLDLPLSL; listed as Homo sapiens) [compound 245]
- Peptide exchange (HLA-A*02): ++++ (> = 75% = ++++)

Substance: 248 (YLDRFLAGV; listed as Homo sapiens) [compound 248]
- Peptide exchange (HLA-A*02): ++++ (> = 75% = ++++)

Substance: 249 (GLCERLVSL; listed as Homo sapiens) [compound 249]
- Wells positive [%] (CD8+ T cells): + (<20% = +)
- Peptide exchange (HLA-A*02): ++++ (> = 75% = ++++)

Substance: 257 (GLYTDPCGV; listed as Homo sapiens) [compound 257]
- Peptide exchange (HLA-A*02): ++++ (> = 75% = ++++)

Substance: 258 (LLSERFINV; listed as Homo sapiens) [compound 258]
- Peptide exchange (HLA-A*02): ++++ (> = 75% = ++++)

Substance: 292 (GMMTAILGV; listed as Homo sapiens) [compound 292]
- Wells (CD8+ T cells): + (<20% = +)

Substance: 293 (FLVDGSWSI; listed as Homo sapiens) [compound 293]
- Wells (CD8+ T cells): + (<20% = +)

Substance: 296 (TYVDSSHTI; listed as Homo sapiens) [compound 296]
- Wells (CD8+ T cells): + (<20% = +)

Substance: 298 (RYLEGTSCI; listed as Homo sapiens) [compound 298]
- Wells (CD8+ T cells): + (<20% = +)

Substance: 300 (AYVLRLETL; listed as Homo sapiens) [compound 300]
- Wells (CD8+ T cells): + (<20% = +)

Substance: 301 (AYKPGALTF; listed as Homo sapiens) [compound 301]
- Wells (CD8+ T cells): + (<20% = +)
